# Experimental data as given in publication PMC10665462 (2023).
# Biological target: BTN3A1 BFI (JM+B30.2) (Homo sapiens, UniProt O00481)
# Experiment: ITC
# Sequence of BTN3A1 BFI (JM+B30.2) (O00481 272-513): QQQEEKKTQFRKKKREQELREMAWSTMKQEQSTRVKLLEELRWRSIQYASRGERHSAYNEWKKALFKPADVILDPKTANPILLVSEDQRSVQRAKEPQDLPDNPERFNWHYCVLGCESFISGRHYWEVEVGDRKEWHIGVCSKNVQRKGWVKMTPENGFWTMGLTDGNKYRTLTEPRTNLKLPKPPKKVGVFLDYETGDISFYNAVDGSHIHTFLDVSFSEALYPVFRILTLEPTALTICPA
row,Binder,Kd [µM]
1,"BTN2A1 ID271 (JM+B30.2) (protein, HMBPP) KLQKEKKILSGEKEFERETREIALKELEKERVQKEEELQVKEKLQEELRWRRTFLHAVDVVLDPDTAHPDLFLSEDRRSVRRCPFRHLGESVPDNPERFDSQPCVLGRESFASGKHYWEVEVENVIEWTVGVCRDSVERKGEVLLIPQNGFWTLEMHKGQYRAVSSPDRILPLKESLCRVGVFLDYEAGDVSFYNMRDRSHIYTCPRSAFSVPVRPFFRLGCEDSPIFICPALTGANGVTVPEEGLTLHRVGTHQSL",0.78
2,"BTN2A1 ID271 (JM+B30.2) (protein, 4-M-HMBPP) KLQKEKKILSGEKEFERETREIALKELEKERVQKEEELQVKEKLQEELRWRRTFLHAVDVVLDPDTAHPDLFLSEDRRSVRRCPFRHLGESVPDNPERFDSQPCVLGRESFASGKHYWEVEVENVIEWTVGVCRDSVERKGEVLLIPQNGFWTLEMHKGQYRAVSSPDRILPLKESLCRVGVFLDYEAGDVSFYNMRDRSHIYTCPRSAFSVPVRPFFRLGCEDSPIFICPALTGANGVTVPEEGLTLHRVGTHQSL",190
